{"source": "paper PMC3365711", "about": "(The Journal of Biological Chemistry, 2012)", "target": "human HP1 CSDα (109–185) (human, UniProt P45973 109-185)", "sequence (P45973 109-185)": "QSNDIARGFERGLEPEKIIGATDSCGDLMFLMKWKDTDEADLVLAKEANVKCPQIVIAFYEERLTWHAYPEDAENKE", "assay": "other fluorescence titration"}
{"binder": "SKAGDLLFIEKVPVVVLEDILATKPSIAS (peptide, UniProt Q9QWF0 210-238, looked up)", "note": "[CAF1 p150(210–238)]", "values": [{"measurement": "Kd", "value": "430 ± 100", "unit": "nM"}]}
